This passage reports ratio to parent results from publication PMC9888277.

The chains are these.
B1: wild-type KHNYN-GFP [human] / ZAP-L (zinc finger antiviral protein, long isoform) [modified: C-terminal S-farnesylation; C-terminal S-farnesylation] [human (endogenous in HeLa)] (parent)
chain 1: MPTWGARPASPDRFAVSAEAENKVREQQPHVERIFSVGVSVLPKDCPDNPHIWLQLEGPKENASRAKEYLKGLCSPELQDEIHYPPKLHCIFLGAQGFFLDCLAWSTSAHLVPRAPGSLMISGLTEAFVMAQSRVEELAERLSWDFTPGPSSGASQCTGVLRDFSALLQSPGDAHREALLQLPLAVQEELLSLVQEASSGQGPGALASWEGRSSALLGAQCQGVRAPPSDGRESLDTGSMGPGDCRGARGDTYAVEKEGGKQGGPREMDWGWKELPGEEAWEREVALRPQSVGGGARESAPLKGKALGKEEIALGGGGFCVHREPPGAHGSCHRAAQSRGASLLQRLHNGNASPPRVPSPPPAPEPPWHCGDRGDCGDRGDVGDRGDKQQGMARGRGPQWKRGARGGNLVTGTQRFKEALQDPFTLCLANVPGQPDLRHIVIDGSNVAMVHGLQHYFSSRGIAIAVQYFWDRGHRDITVFVPQWRFSKDAKVRESHFLQKLYSLSLLSLTPSRVMDGKRISSYDDRFMVKLAEETDGIIVSNDQFRDLAEESEKWMAIIRERLLPFTFVGNLFMVPDDPLGRNGPTLDEFLKKPARTQGSSKAQHPSRGFAEHGKQQQGREEEKGSGGIRKTRETERLRRQLLEVFWGQDHKVDFILQREPYCRDINQLSEALLSLNF
chain 2: MADPEVCCFITKILCAHGGRMALDALLQEIALSEPQLCEVLQVAGPDRFVVLETGGEAGITRSVVATTRARVCRRKYCQRPCDNLHLCKLNLLGRCNYSQSERNLCKYSHEVLSEENFKVLKNHELSGLNKEELAVLLLQSDPFFMPEICKSYKGEGRQQICNQQPPCSRLHICDHFTRGNCRFPNCLRSHNLMDRKVLAIMREHGLNPDVVQNIQDICNSKHMQKNPPGPRAPSSHRRNMAYRARSKSRDRFFQGSQEFLASASASAERSCTPSPDQISHRASLEDAPVDDLTRKFTYLGSQDRARPPSGSSKATDLGGTSQAGTSQRFLENGSQEDLLHGNPGSTYLASNSTSAPNWKSLTSWTNDQGARRKTVFSPTLPAARSSLGSLQTPEAVTTRKGTGLLSSDYRIINGKSGTQDIQPGPLFNNNADGVATDITSTRSLNYKSTSSGHREISSPRIQDAGPASRDVQATGRIADDADPRVALVNDSLSDVTSTTSSRVDDHDSEEICLDHLCKGCPLNGSCSKVHFHLPYRWQMLIGKTWTDFEHMETIEKGYCNPGIHLCSVGSYTINFRVMSCDSFPIRRLSTPSSVTKPANSVFTTKWIWYWKNESGTWIQYGEEKDKRKNSNVDSSYLESLYQSCPRGVVPFQAGSRNYELSFQGMIQTNIASKTQKDVIRRPTFVPQWYVQQMKRGPDHQPAKTSSVSLTATFRPQEDFCFLSSKKYKLSEIHHLHPEYVRVSEHFKASMKNFKIEKIKKIENSELLDKFTWKKSQMKEEGKLLFYATSRAYVESICSNNFDSFLHETHENKYGKGIYFAKDAIYSHKNCPYDAKNVVMFVAQVLVGKFTEGNITYTSPPPQFDSCVDTRSNPSVFVIFQKDQVYPQYVIEYTEDKACVIS

This experiment covers variants of B1. The experiment in a line: co-immunoprecipitation (GFP IP, immunoblot for endogenous ZAP, quantified). The following applies: with ZAP-L (zinc finger antiviral protein, long isoform) [modified: C-terminal S-farnesylation, HeLa cell lysates, N = 3, parent: 1, read off a plot. In general terms: In western blotting, separated proteins are transferred to a membrane and probed.
In the case of chain 1 L676Q F678E, the ratio to parent amounted to 0.38.
